According to patent US20160002357A1:
Values belong to the substance of their own block, whether it stands above or below them.

Legend:
[1] = target: human P-cadherin, cell surface expressed (human) (UniProt P22223); assay: flow cytometry, PE-labeled mAb, SW480 cells
[2] = target: human P-cadherin, cell surface expressed (human) (UniProt P22223); assay: flow cytometry, PE-labeled mAb, SW620 cells
[3] = target: human P-cadherin, cell surface expressed (human) (UniProt P22223); assay: flow cytometry, PE-labeled mAb, HCT116 cells
[4] = target: human P-cadherin, cell surface expressed (human) (UniProt P22223); assay: flow cytometry, PE-labeled mAb, Ls174T cells
[5] = target: human P-cadherin, cell surface expressed (human) (UniProt P22223); assay: flow cytometry, PE-labeled mAb, SUM149 cells
[6] = target: human P-cadherin, cell surface expressed (human) (UniProt P22223); assay: flow cytometry, PE-labeled mAb, BT20_Luc cells
[7] = target: human P-cadherin, cell surface expressed (human) (UniProt P22223); assay: flow cytometry, PE-labeled mAb, H322_Luc cells
[8] = target: human P-cadherin, cell surface expressed (human) (UniProt P22223); assay: flow cytometry, PE-labeled mAb, HT29_Luc cells
[9] = target: human P-cadherin, cell surface expressed (human) (UniProt P22223); assay: flow cytometry, PE-labeled mAb, LoVo_Luc cells
[10] = target: human P-cadherin, cell surface expressed (human) (UniProt P22223); assay: flow cytometry, PE-labeled mAb, H1650_Luc cells
[11] = target: human P-cadherin, cell surface expressed (human) (UniProt P22223); assay: flow cytometry, PE-labeled mAb, H1975_Luc cells
[12] = target: human P-cadherin, cell surface expressed (human) (UniProt P22223); assay: flow cytometry, PE-labeled mAb, SW480_Luc cells
[13] = target: human P-cadherin, cell surface expressed (human) (UniProt P22223); assay: flow cytometry, PE-labeled mAb, SW620_Luc cells
[14] = target: human P-cadherin, cell surface expressed (human) (UniProt P22223); assay: flow cytometry, PE-labeled mAb, HCT116_Luc cells
[15] = target: human P-cadherin, cell surface expressed (human) (UniProt P22223); assay: flow cytometry, PE-labeled mAb, Ls174T_Luc cells
[16] = target: human P-cadherin, cell surface expressed (human) (UniProt P22223); assay: flow cytometry, PE-labeled mAb, SUM149_Luc cells
[17] = target: human P-cadherin, cell surface expressed (human) (UniProt P22223); assay: flow cytometry, PE-labeled mAb, Colo205_Luc cells
[18] = target: human P-cadherin, cell surface expressed (human) (UniProt P22223); assay: quantitative flow cytometry (QuantiBRITE PE), SW480 cells
[19] = target: human P-cadherin, cell surface expressed (human) (UniProt P22223); assay: quantitative flow cytometry (QuantiBRITE PE), SW620 cells
[20] = target: human P-cadherin, cell surface expressed (human) (UniProt P22223); assay: quantitative flow cytometry (QuantiBRITE PE), HCT116 cells
[21] = target: human P-cadherin, cell surface expressed (human) (UniProt P22223); assay: quantitative flow cytometry (QuantiBRITE PE), Ls174T cells
[22] = target: human P-cadherin, cell surface expressed (human) (UniProt P22223); assay: quantitative flow cytometry (QuantiBRITE PE), SUM149 cells
[23] = target: human P-cadherin, cell surface expressed (human) (UniProt P22223); assay: quantitative flow cytometry (QuantiBRITE PE), BT20_Luc cells
[24] = target: human P-cadherin, cell surface expressed (human) (UniProt P22223); assay: quantitative flow cytometry (QuantiBRITE PE), H322_Luc cells
[25] = target: human P-cadherin, cell surface expressed (human) (UniProt P22223); assay: quantitative flow cytometry (QuantiBRITE PE), HT29_Luc cells
[26] = target: human P-cadherin, cell surface expressed (human) (UniProt P22223); assay: quantitative flow cytometry (QuantiBRITE PE), LoVo_Luc cells
[27] = target: human P-cadherin, cell surface expressed (human) (UniProt P22223); assay: quantitative flow cytometry (QuantiBRITE PE), H1650_Luc cells
[28] = target: human P-cadherin, cell surface expressed (human) (UniProt P22223); assay: quantitative flow cytometry (QuantiBRITE PE), H1975_Luc cells
[29] = target: human P-cadherin, cell surface expressed (human) (UniProt P22223); assay: quantitative flow cytometry (QuantiBRITE PE), SW480_Luc cells
[30] = target: human P-cadherin, cell surface expressed (human) (UniProt P22223); assay: quantitative flow cytometry (QuantiBRITE PE), SW620_Luc cells
[31] = target: human P-cadherin, cell surface expressed (human) (UniProt P22223); assay: quantitative flow cytometry (QuantiBRITE PE), HCT116_Luc cells
[32] = target: human P-cadherin, cell surface expressed (human) (UniProt P22223); assay: quantitative flow cytometry (QuantiBRITE PE), Ls174T_Luc cells
[33] = target: human P-cadherin, cell surface expressed (human) (UniProt P22223); assay: quantitative flow cytometry (QuantiBRITE PE), SUM149_Luc cells
[34] = target: human P-cadherin, cell surface expressed (human) (UniProt P22223); assay: quantitative flow cytometry (QuantiBRITE PE), Colo205_Luc cells
[35] = target: human P-cadherin expressed on the cell surface (human) (UniProt P22223); assay: cell ELISA, H1650 cells
huP-cad-ECD (human) = huP-cad-ECD (human) (UniProt P22223); assay: ELISA, recombinant protein
[36] = target: huP-cad-ECD biotinylated (human) (UniProt P22223); assay: ELISA, recombinant protein
muP-cad-ECD (murine) = muP-cad-ECD (murine) (UniProt P10287); assay: ELISA, recombinant protein
[37] = target: human P-cadherin expressed on the cell surface (human) (UniProt P22223); assay: cell ELISA, CHO-huPcad cells
[38] = target: human P-cadherin expressed on the cell surface (human) (UniProt P22223); assay: cell ELISA, SW480-huPcad cells
[39] = target: human P-cadherin, cell surface expressed (human) (UniProt P22223); assay: flow cytometry, PE-conjugated mAb, SW480 cells
[40] = target: human P-cadherin, cell surface expressed (human) (UniProt P22223); assay: flow cytometry, PE-conjugated mAb, SW620 cells
[41] = target: human P-cadherin, cell surface expressed (human) (UniProt P22223); assay: flow cytometry, PE-conjugated mAb, HCT116 cells
[42] = target: human P-cadherin, cell surface expressed (human) (UniProt P22223); assay: flow cytometry, PE-conjugated mAb, Ls174T cells
[43] = target: human P-cadherin, cell surface expressed (human) (UniProt P22223); assay: flow cytometry, PE-conjugated mAb, SUM149 cells
[44] = target: human P-cadherin, cell surface expressed (human) (UniProt P22223); assay: flow cytometry, PE-conjugated mAb, BT20_Luc cells
[45] = target: human P-cadherin, cell surface expressed (human) (UniProt P22223); assay: flow cytometry, PE-conjugated mAb, H322_Luc cells
[46] = target: human P-cadherin, cell surface expressed (human) (UniProt P22223); assay: flow cytometry, PE-conjugated mAb, HT29_Luc cells
[47] = target: human P-cadherin, cell surface expressed (human) (UniProt P22223); assay: flow cytometry, PE-conjugated mAb, LoVo_Luc cells
[48] = target: human P-cadherin, cell surface expressed (human) (UniProt P22223); assay: flow cytometry, PE-conjugated mAb, H1650_Luc cells
[49] = target: human P-cadherin, cell surface expressed (human) (UniProt P22223); assay: flow cytometry, PE-conjugated mAb, H1975_Luc cells
[50] = target: human P-cadherin, cell surface expressed (human) (UniProt P22223); assay: flow cytometry, PE-conjugated mAb, SW480_Luc cells
[51] = target: human P-cadherin, cell surface expressed (human) (UniProt P22223); assay: flow cytometry, PE-conjugated mAb, SW620_Luc cells
[52] = target: human P-cadherin, cell surface expressed (human) (UniProt P22223); assay: flow cytometry, PE-conjugated mAb, HCT116_Luc cells
[53] = target: human P-cadherin, cell surface expressed (human) (UniProt P22223); assay: flow cytometry, PE-conjugated mAb, Ls174T_Luc cells
[54] = target: human P-cadherin, cell surface expressed (human) (UniProt P22223); assay: flow cytometry, PE-conjugated mAb, SUM149_Luc cells
[55] = target: human P-cadherin, cell surface expressed (human) (UniProt P22223); assay: flow cytometry, PE-conjugated mAb, Colo205_Luc cells

Sequence of human P-cadherin, cell surface expressed (human) (P22223 108-829): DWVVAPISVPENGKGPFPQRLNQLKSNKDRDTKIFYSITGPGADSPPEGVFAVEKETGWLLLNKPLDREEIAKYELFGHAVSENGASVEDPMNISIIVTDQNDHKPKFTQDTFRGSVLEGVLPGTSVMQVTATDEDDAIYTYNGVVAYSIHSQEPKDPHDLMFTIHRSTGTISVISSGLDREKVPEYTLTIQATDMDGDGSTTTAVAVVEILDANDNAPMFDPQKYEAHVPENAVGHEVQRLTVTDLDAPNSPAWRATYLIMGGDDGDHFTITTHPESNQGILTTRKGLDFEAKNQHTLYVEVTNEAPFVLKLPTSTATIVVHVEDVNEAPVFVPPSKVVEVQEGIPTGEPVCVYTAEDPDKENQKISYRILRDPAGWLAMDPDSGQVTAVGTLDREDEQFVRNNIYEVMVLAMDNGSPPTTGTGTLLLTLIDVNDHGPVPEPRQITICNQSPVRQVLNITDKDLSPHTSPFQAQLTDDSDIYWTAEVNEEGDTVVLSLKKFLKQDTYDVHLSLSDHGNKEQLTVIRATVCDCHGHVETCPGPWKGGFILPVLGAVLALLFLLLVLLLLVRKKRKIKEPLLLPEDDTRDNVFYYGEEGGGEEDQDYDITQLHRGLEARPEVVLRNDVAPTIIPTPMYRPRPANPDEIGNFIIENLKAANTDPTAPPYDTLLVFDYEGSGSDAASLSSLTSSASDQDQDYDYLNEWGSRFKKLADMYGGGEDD
Sequence of human P-cadherin expressed on the cell surface (human) (P22223 108-829): as above
Sequence of huP-cad-ECD biotinylated (human) (P22223 108-654): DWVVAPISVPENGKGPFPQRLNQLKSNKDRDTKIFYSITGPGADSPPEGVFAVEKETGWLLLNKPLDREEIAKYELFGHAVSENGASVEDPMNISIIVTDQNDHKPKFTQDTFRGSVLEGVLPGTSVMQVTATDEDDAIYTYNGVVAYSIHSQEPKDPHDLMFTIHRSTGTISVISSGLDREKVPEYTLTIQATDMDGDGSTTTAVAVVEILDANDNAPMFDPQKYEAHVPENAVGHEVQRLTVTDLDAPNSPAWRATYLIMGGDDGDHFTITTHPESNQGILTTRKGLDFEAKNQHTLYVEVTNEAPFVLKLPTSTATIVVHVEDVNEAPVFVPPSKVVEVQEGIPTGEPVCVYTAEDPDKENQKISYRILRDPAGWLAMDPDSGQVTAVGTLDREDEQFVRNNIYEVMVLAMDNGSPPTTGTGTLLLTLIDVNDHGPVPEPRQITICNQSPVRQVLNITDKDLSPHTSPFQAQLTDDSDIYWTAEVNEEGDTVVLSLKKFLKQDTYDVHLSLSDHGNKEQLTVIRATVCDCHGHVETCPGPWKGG
Sequence of huP-cad-ECD (human) (P22223 108-654): as above
Sequence of muP-cad-ECD (murine) (P10287 100-647): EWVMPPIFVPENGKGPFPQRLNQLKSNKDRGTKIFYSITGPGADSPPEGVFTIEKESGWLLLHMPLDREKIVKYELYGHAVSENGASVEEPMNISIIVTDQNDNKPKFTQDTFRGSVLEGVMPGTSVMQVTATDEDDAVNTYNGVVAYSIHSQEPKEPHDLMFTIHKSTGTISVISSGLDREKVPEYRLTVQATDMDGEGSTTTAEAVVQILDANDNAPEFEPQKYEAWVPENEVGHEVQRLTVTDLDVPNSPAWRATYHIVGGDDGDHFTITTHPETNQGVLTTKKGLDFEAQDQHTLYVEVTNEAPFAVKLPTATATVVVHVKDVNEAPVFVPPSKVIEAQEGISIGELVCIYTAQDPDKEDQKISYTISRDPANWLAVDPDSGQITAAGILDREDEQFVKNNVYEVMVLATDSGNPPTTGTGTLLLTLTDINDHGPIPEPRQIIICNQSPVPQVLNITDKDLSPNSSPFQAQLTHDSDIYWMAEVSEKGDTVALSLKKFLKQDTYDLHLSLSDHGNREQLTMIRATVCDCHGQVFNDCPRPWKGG

MFI [1]: 2470
MFI [2]: 297
MFI [3]: 8030
MFI [4]: 986
MFI [5]: 2870
MFI [6]: 5240
MFI [7]: 3230
MFI [8]: 787
MFI [9]: 1390
MFI [10]: 7960
MFI [11]: 3160
MFI [12]: 1260
MFI [13]: 276
MFI [14]: 5660
MFI [15]: 290
MFI [16]: 3720
MFI [17]: 357
ABC (antibodies bound per cell) (antibodies bound per cell) [18]: 12700
ABC (antibodies bound per cell) (antibodies bound per cell) [19]: 1120
ABC (antibodies bound per cell) (antibodies bound per cell) [20]: 43800
ABC (antibodies bound per cell) (antibodies bound per cell) [21]: 4160
ABC (antibodies bound per cell) (antibodies bound per cell) [22]: 15400
ABC (antibodies bound per cell) (antibodies bound per cell) [23]: 24300
ABC (antibodies bound per cell) (antibodies bound per cell) [24]: 16600
ABC (antibodies bound per cell) (antibodies bound per cell) [25]: 2420
ABC (antibodies bound per cell) (antibodies bound per cell) [26]: 5800
ABC (antibodies bound per cell) (antibodies bound per cell) [27]: 37600
ABC (antibodies bound per cell) (antibodies bound per cell) [28]: 15400
ABC (antibodies bound per cell) (antibodies bound per cell) [29]: 5300
ABC (antibodies bound per cell) (antibodies bound per cell) [30]: 715
ABC (antibodies bound per cell) (antibodies bound per cell) [31]: 26400
ABC (antibodies bound per cell) (antibodies bound per cell) [32]: 929
ABC (antibodies bound per cell) (antibodies bound per cell) [33]: 17000
ABC (antibodies bound per cell) (antibodies bound per cell) [34]: 874
Substance: anti-human P-cadherin mAb PF-03732010, phycoerythrin (PE) labeled (antibody)

EC50 [35]: 0.209 nM
EC50 (huP-cad-ECD (human)): 1.94 nM
EC50 [36]: 0.0188 nM
EC50 (muP-cad-ECD (murine)): 2.33 nM
EC50 [37]: 0.329 nM
EC50 [38]: 0.167 nM
Substance: anti-P-cadherin clinical mAb PF-03732010 (antibody)

MFI [39]: 171
MFI [40]: 88
MFI [41]: 239
MFI [42]: 222
MFI [43]: 68
MFI [44]: 225
MFI [45]: 242
MFI [46]: 282
MFI [47]: 175
MFI [48]: 254
MFI [49]: 373
MFI [50]: 151
MFI [51]: 125
MFI [52]: 229
MFI [53]: 94
MFI [54]: 213
MFI [55]: 173
Substance: control mouse IgG1 mAb (Biolegend), PE conjugated (antibody)
